{"source": "patent US20220218834A1", "about": "“APOHEMOGLOBIN-HAPTOGLOBIN COMPLEXES AND METHODS OF USING THEREOF” (OHIO STATE INNOVATION FOUNDATION, priority 2019, published 2022)", "molecules": {"B1": {"name": "Hpx: hemopexin, plasma heme scavenging protein (protein, UniProt P02790 24-462, looked up)", "Hemopexin": "TPLPPTSAHGNVAEGETKPDPDVTERCSDGWSFDATTLDDNGTMLFFKGEFVWKSHKWDRELISERWKNFPSPVDAAFRQGHNSVFLIKGDKVWVYPPEKKEKGYPKLLQDEFPGIPSPLDAAVECHRGECQAEGVLFFQGDREWFWDLATGTMKERSWPAVGNCSSALRWLGRYYCFQGNQFLRFDPVRGEVPPRYPRDVRDYFMPCPGRGHGHRNGTGHGNSTHHGPEYMRCSPHLVLSALTSDNHGATYAFSGTHYWRLDTSRDGWHSWPIAHQWPQGPSAVDAAFSWEEKLYLVQGTQVYVFLTKGGYTLVSGYPKRLEKEVGTPHGIILDSVDAAFICPGSSRLHIMAGRRLWWLDLKSGAQATWTELPWPHEKVDGALCMEKSLGPNSCSANGPGLYLIHGPNLYCYSDVEKLNAAKALPQPQNVTSLLGCTH"}}, "key": {"[1]": {"test": "ApoHb stability during storage (DCNh activity assay, total protein, RP-HPLC)", "format": "physicochemical", "details": "for effect of time on apoHb activity or total protein: stored at −80° C.", "description": "The extinction coefficients of DCNh and rHbCN were 85 mM^−1 cm^−1 and 114 mM^−1 cm^−1, respectively.\nThree TFF-apoHb batches were prepared. […] These groups consisted of unconcentrated, concentrated and lyophilized apoHb. […] The remainder of the batch was either sent to be lyophilized or to be concentrated to […]. […] The lyophilized powder was stored in a closed container at −80° C. […] These time intervals were chosen to capture relevant changes in activity at each storage condition. […] Thus, after initial measurements on a weekly basis, the insignificant changes lead to longer intervals between measurements. Statistical analysis was performed on JMP Pro v 12.2.2 (SAS Institute, Cary, N.C.) and measured concentrations were compared to the initial time point values of each batch. A linear fit with the logarithmic value of the concentration was used to examine the effect of time with the ANOVA test. For time point differences, time was considered as discrete and the TUKEY HSD test was performed.\nReverse Phase Chromatography. Reverse phase (RP) chromatography was performed with a BioBasic-18 column (Thermo Scientific, Waltham, Mass.) on a Thermo Scientific Dionex Ultimate UHPLC system. The flow rate of the mobile phase was set to 0.75 mL/min. The column was equilibrated with 35% acetonitrile and 65% TFA (0.5 wt %, pH 2.6) for 10 minutes. The gradient was then shifted to 43% acetonitrile over a 1 minute interval. The protein was eluted with an increasing linear gradient of 43 to 47% acetonitrile for 30 minutes. The column was then held at 47% acetonitrile for 20 minutes."}, "[2]": {"target": "T1, acellular human Hb (Homo sapiens, UniProt P68871+P69905)", "T1 construct": "Expired units of human red blood cells were generously donated; from tissue; host or cells: expired human red blood cell units; purified in house by tangential flow filtration", "T1 sequence (P69905 2-142 limits assumed)": "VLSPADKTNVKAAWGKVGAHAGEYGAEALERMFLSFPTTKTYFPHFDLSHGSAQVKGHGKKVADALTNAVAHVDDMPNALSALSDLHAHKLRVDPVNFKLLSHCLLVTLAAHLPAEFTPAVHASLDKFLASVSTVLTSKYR", "T1 sequence (P68871 2-147 limits assumed)": "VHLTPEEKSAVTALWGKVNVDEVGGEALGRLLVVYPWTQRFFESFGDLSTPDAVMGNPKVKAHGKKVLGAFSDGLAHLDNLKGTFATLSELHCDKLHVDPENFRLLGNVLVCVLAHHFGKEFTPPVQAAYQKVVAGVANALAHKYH", "test": "Vascular response to acellular Hb after pretreatment, hamster dorsal window chamber", "format": "in vivo, Golden Syrian Hamsters", "description": "Studies were performed in 55-65 g male Golden Syrian Hamsters (Charles River Laboratories, Boston, Mass.) fitted with a dorsal window chamber. The hamster window chamber model is widely used for microvascular studies without anesthesia. The complete surgical technique has been described previously. Two days after window implantation, arterial and venous catheters filled with heparinized saline solution (30 IU/mL) were implanted into the carotid and jugular vessels. Catheters were tunneled under the skin, exteriorized at the dorsal side of the neck, and securely attached to the window frame.\nThe unanesthetized animal was placed in a restraining tube with a longitudinal slit from which the window chamber protruded, then fixed to the microscopic stage for transillumination with the intravital microscope (BX51WI, Olympus, Japan). Animals were given 20 minutes to adjust to the tube environment and images were obtained using a CCD camera (4815, COHU, San Diego, Calif.). […]\nThe MAP and HR were monitored continuously (MP150, Biopac System Inc., Santa Barbara, Calif.). Hct was measured from centrifuged arterial blood samples taken in heparinized capillary tubes. Hb content was determined spectrophotometrically (B-Hemoglobin, Hemocue, Stockholm, Sweden). Arterial blood was collected in heparinized glass capillaries (50 μL) and immediately analyzed for pO2, pCO2, and pH (ABL90; Radiometer America, Brea, Calif.). Arterial Hb saturation was measured using an IL482 CO-Oximeter (Instrumentation Laboratory, Lexington, Mass.).\nArteriolar and venular blood flow velocities were measured using the photodiode cross-correlation method (Photo-Diode/Velocity, Vista Electronics, San Diego, Calif.). The measured centerline velocity (V) was corrected according to blood vessel size to obtain the mean RBC velocity. […] Blood flow (Q) was calculated from the measured values as Q=π/4D^2 V.\nFunctional capillaries, defined as capillary segments that have transit of at least one RBC in a 60 second period in 10 successive microscopic fields, were assessed in a region of 0.46 mm^2. […]"}, "[3]": {"target": "T2, PolyHb (Homo sapiens, UniProt P68871+P69905)", "T2 construct": "from tissue; host or cells: human red blood cells; Hb purified and polymerised in house", "T2 sequence (P69905 2-142 limits assumed)": "as the sequence (P69905 2-142 limits assumed) above", "T2 sequence (P68871 2-147 limits assumed)": "as the sequence (P68871 2-147 limits assumed) above", "test": "20% isovolemic exchange transfusion of PolyHb after pretreatment, hamster window chamber", "format": "in vivo, Golden Syrian Hamsters", "description": "Additionally, animals with signs of low perfusion, inflammation, edema, or bleeding in their microvasculature were excluded from the study. Prior to treatment, baseline systemic parameters and microvascular hemodynamics were assessed. […] 20 minutes following the initial treatment, the systemic parameters and microvascular hemodynamics were assessed. Afterward, the animals underwent a 20 percent isovolemic exchange transfusion with a 10 g/dL PolyHb solution. After another 20 minutes, the systemic parameters and microvascular hemodynamics were measured. Mean arterial pressure (MAP) and heart rate (HR) were monitored continuously (MP150, Biopac System Inc., Santa Barbara, Calif.). The sample size of 5 animals per group was calculated based on an expected 10% difference in mean arterial pressure between groups, an α=0.05, and […], and equal enrollment for all groups. Additionally, microhemodynamic measurements contain data from multiple vessels within the field (5-7 arterioles and venules selected at baseline based on visual clarity), improving the power of these measurements. Each experiment is a repeated measures study, so all experimental timepoints are replicated between all animals and groups. Furthermore, each experimental group contains animals from different litters, improving the replication of these studies. Animals were randomly assigned to their respective group before baseline measurements were taken. Each group contains animals from multiple litters of hamsters to improve randomization. Investigators were not blinded to group allocation during data collection or analysis. Blinding is not possible with these solutions as they have distinct colors. Measurements taken are highly quantitative, so blinding should have little impact.\nThe unanesthetized animal was placed in a restraining tube with a longitudinal slit from which the window chamber protruded, then fixed to the microscopic stage for transillumination with the intravital microscope (BX51WI, Olympus, New Hyde Park, N.Y.). […] Measurements were carried out using a 40× (LUMPFL-WIR, numerical aperture 0.8, Olympus) water immersion objective.\nArteriolar and venular blood flow velocities were measured using the photodiode cross-correlation method (Photo-Diode/Velocity, Vista Electronics, San Diego, Calif.). The measured centerline velocity (V) was corrected according to blood vessel size to obtain the mean RBC velocity. A video image-shearing method was used to measure blood vessel diameter (D). Blood flow (Q) was calculated from the measured values as\nFunctional capillaries, defined as capillary segments that have RBC transit of at least one RBC in a 60 second period in 10 successive microscopic fields, were assessed in a region of 0.46 mm^2. FCD (mm^−1) is calculated as the total length of RBC perfused capillaries divided by the area (0.46 mm^2)."}, "[4]": {"test": "Specificity of Al-PC binding to proteins (UV-visible absorbance at 680 nm)", "details": "absorbance at 680 nm after Al-PC addition in PBS", "quoted_text": "The stock Al-PC solution was diluted 100× into 100% EtOH.\nThe concentrations of Hp, HSA, Hb and rHb in solution were 1.0 mg/mL, 0.35 mg/ml (and 3.5 mg/ml), 0.35 mg/mL, and 0.33 mg/mL respectively."}, "[5]": {"test_system": "β-thalassemic mice", "details": "cited from earlier work"}}}
{"molecule": "apoHb: protein produced by removing heme from Hb; made via acidic ethanol tangential flow filtration", "values": [{"measurement": "loss of apoHb activity during long term storage", "setting": "[1]; 4° C., −80° C., and lyophilized form", "value": "Virtually no loss of apoHb activity"}, {"measurement": "total protein and activity in solution during storage", "setting": "[1]; 37° C., liquid", "value": "quickly lost total protein and activity in solution"}, {"measurement": "P50 and cooperativity coefficient after reconstitution into rHb", "setting": "[1]; apoHb stored at 4° C. for one month, vs reconstituted right after production", "value": "did not show any significant difference"}, {"measurement": "effect of time on apoHb activity or total protein", "setting": "[1]; lyophilized", "value": "did not show a significant effect of time on apoHb activity or total protein"}, {"measurement": "retention of total protein", "setting": "[1]; one-week storage at 22° C.", "value": "80-90%"}, {"measurement": "oxidative modifications (RP-HPLC)", "setting": "[1]; stored at 4° C. or at 22° C.", "value": "show an additional β-chain peak (βox)"}, {"measurement": "effect of time on activity", "setting": "[1]; stored at 4° C., unconcentrated", "value": "no significant differences were seen after day 10"}, {"measurement": "oxidative modifications (RP-HPLC)", "setting": "[1]; stored at −80° C. or lyophilized for over a year", "value": "no oxidative modifications were observed"}, {"measurement": "effect of time on apoHb activity or total protein", "setting": "[1]; both concentrations", "value": "no statistically significant effect of time on apoHb activity or total protein"}, {"measurement": "MAP", "setting": "[2]; after acellular Hb 10% hypervolemic infusion", "value": "elevated MAP compared to baseline and pretreatment"}, {"measurement": "FCD", "setting": "[2]; after acellular Hb infusion", "value": "FCD decreased"}, {"measurement": "HR", "setting": "[2]; after acellular Hb infusion", "value": "statistically significant decrease in HR from baseline and pre-treatment"}, {"measurement": "MAP", "setting": "[3]; after PolyHb exchange transfusion", "value": "significant increase in MAP"}, {"measurement": "FCD", "setting": "[3]; after PolyHb transfusion", "value": "FCD significantly decreased"}, {"measurement": "arteriole and venule diameter", "setting": "[3]; after PolyHb transfusion", "value": "significant decrease in relative arteriole and venule diameter compared to the baseline"}, {"measurement": "arteriole and venule fluid velocities and volumetric flow rates", "setting": "[3]; after PolyHb transfusion", "value": "the volumetric flow rate in the arterioles and venules decreased"}, {"measurement": "MAP or HR", "setting": "[3]; after administration, prior to transfusion of PolyHb", "value": "no significant effect on MAP or HR"}, {"measurement": "FCD", "setting": "[3]; after treatment, before PolyHb transfusion", "value": "significant increase in FCD"}, {"measurement": "Al-PC binding", "setting": "[4]", "value": "Al-PC bound to apoHb and prevented Al-PC aggregation"}]}
{"molecule": "B1", "values": [{"measurement": "RBC levels", "setting": "[5]; Hpx treatment alone", "value": "did not improve RBC levels"}, {"measurement": "iron levels in the liver", "setting": "[5]; one month of Hpx treatment alone", "value": "increased iron levels in the liver"}]}
